According to patent US7078174 (WALTER AND ELIZA HALL INSTITUTE OF MEDICAL RESEARCH, dated 2006):

Legend:
[1] = target: T1, FLAG-tagged SSB-1 truncated form lacking only the SOCS box (mouse, UniProt Q9D5L7 1-231, limits assumed); test: co-immunoprecipitation with anti-myc from transfected 293T cells, Western blot with anti-FLAG
T1 construct: domain: SSB-1 lacking only the SOCS box; Transiently expressed in 293T cells; also called truncated form of SSB-1 lacking only the SOCS box
T1 sequence: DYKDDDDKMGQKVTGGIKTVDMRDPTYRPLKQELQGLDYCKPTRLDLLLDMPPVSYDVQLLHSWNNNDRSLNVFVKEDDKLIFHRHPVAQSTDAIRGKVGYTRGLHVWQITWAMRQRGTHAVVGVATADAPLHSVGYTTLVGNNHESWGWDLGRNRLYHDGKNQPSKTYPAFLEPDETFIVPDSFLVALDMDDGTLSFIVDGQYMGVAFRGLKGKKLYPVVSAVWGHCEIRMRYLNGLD
Text: To further confirm the generality of this interaction for other proteins containing a SOCS box, 293T fibroblasts were transfected with N-terminally FLAG-tagged WSB-2 or SSB-1 along with elongin B containing a FLAG epitope or elongin C containing a myc epitope.

[2] = target: T2, elongin C (endogenous, murine M1 cells) (murine, UniProt P83940 1-112); test: anti-FLAG M2 immunoprecipitation from M1 cells, FLAG peptide elution, Western blot
T2 construct: Endogenous protein from cell lysate; present together with elongin B; also called 15 kDa band
Method: FIG. 2 is a photographic representation showing competition of SOCS-1 SOCS box interaction with elongin C. Biotinylated SOCS-1 SOCS box peptide was immobilized on streptavidin-agarose resin and used to affinity purify interacting proteins from M1 cellular extracts in the presence (+) or absence (–) of […] competing non-biotinylated SOCS box peptides. Proteins were separated by SDS-PAGE on a 4–15% w/v acrylamide gel, and bands were visualized by silver staining. Soluble SOCS box peptides corresponding to SOCS-1, ASB-2 and WSB-2 prevented binding of elongin C to immobilized SOCS-1 SOCS box FIG. 3 is a photographic representation showing interaction of SOCS-1 with endogenous elongins B and C. Cellular extracts from M1 cells stably expressing either full-length SOCS-1 or SOCS-1 lacking SOCS box (both proteins were N-terminally FLAG-tagged) were incubated with anti-FLAG antibody M2 resin and bound cellular proteins were eluted from the columns with FLAG peptide as described in Materials and Methods. Lanes 1–3 correspond to column eluates 3 to 5 from M1 cells expressing full-length SOCS-1 and lanes 4–6 correspond to column eluates 3 to 5 from M1 cells expressing SOCS-1 lacking SOCS box. The panels from top to bottom correspond to Western blot analyses by anti-FLAG, anti-elongin C, anti-elongin B, and a mixture of anti-elongin B and anti-elongin C, respectively. […]

[3] = target: T3, gp130 (endogenous, M1 cells) (murine, UniProt Q00560 23-917); test: anti-FLAG affinity column from unstimulated M1 cells, FLAG peptide elution, Western blot
T3 sequence (looked up): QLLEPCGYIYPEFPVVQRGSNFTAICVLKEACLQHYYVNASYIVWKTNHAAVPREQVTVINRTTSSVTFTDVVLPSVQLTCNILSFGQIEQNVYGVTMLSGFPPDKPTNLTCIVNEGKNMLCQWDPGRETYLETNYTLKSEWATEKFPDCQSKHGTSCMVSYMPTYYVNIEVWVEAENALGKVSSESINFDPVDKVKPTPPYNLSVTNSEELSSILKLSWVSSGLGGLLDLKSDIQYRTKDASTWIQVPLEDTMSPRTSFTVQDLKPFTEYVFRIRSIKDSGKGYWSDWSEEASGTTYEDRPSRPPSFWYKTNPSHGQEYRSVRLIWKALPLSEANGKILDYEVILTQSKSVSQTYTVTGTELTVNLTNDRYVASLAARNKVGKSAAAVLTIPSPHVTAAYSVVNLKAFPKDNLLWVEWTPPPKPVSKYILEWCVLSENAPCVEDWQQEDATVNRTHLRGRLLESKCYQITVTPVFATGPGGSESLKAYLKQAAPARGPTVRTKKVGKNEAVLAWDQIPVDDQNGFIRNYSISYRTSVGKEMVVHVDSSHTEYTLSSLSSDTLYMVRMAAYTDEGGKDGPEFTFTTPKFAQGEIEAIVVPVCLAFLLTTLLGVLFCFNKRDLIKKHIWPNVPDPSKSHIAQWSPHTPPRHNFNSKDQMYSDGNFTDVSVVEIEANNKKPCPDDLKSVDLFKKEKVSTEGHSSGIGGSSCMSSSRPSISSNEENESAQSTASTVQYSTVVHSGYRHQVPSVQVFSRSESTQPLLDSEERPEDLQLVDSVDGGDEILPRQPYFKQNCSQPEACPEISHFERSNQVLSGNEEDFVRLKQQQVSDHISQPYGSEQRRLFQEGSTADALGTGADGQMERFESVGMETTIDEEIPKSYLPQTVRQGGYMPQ
Text: (§1) The inventors passed lysates from 10^9 unstimulated M1 cells expressing FLAG-tagged SOCS-1 through an anti-FLAG affinity column which was then eluted with FLAG peptide. The eluate was then subjected to SDS-PAGE and the proteins were Western blotted. The blot was then probed with anti-FLAG antibodies to confirm the presence of SOCS-1 and with a range of antibodies against proteins thought to interact with SOCS-1 (FIG. 7). It can be seen that SOCS-1 is capable of forming a complex with elongin B and elongin C, cullin 2, as well as JAK1 and gp130. To determine whether proteins in this complex interact directly or indirectly with SOCS-1, or whether all the proteins can be found together in a single complex, or whether separate complexes are, for example, formed between SOCS-1, JAK-1 and gp130 on one hand and between SOCS-1, elongin B and C and cullin-2, is addressed in part by performing the primary immunoprecipitation using a different antibody.

[4] = target: cullin 2 (endogenous, M1 cells) (murine, UniProt Q9D4H8 1-745); test: as above
Text: as §1

[5] = target: JAK1 (endogenous, M1 cells) (murine, UniProt P52332 1-1153); test: as above
Text: as §1

[6] = target: T4, GST (glutathione-S-transferase control) (UniProt P08515 1-218 = GST, covalently coupled to NHS-activated Sepharose resin); test: GST-Sepharose pull-down from M1 cell lysate, Coomassie gel and Western blot
T4 construct: also called GST-Sepharose; GST control
Method: M1 cells (2 ×10^10) were lysed on ice for 30 min in 100 ml of lysis buffer supplemented with protease inhibitors (Complete Cocktail tablets; Boehringer Mannheim, Mannheim, Germany), 1 mM PMSF, 1 mM Na_3VO_4 and 1 mM NaF. The total cell lysate was centrifuged at 15,000 rpm (SS34 rotor) for 15 min at 4° C. and the clarified supernatant pre-incubated with 1 ml of GST-Sepharose resin for 2 h at 4° C. Half the GST-Sepharose-depleted M1 cell lysate was incubated with 1 ml of GST-SOCS-1 SOCS box- and the other half with GST-SOCS-3 SOCS box-Sepharose resin for 2 h at 4° C. The affinity resins were washed with 40 ml of lysis buffer and then eluted with 8×0.5 ml of elation buffer. Eluates were concentrated to ~40 μl, mixed with 15 μl of 4×SDS sample buffer containing 0.4 M DTT and resolved on a 14% polyacrylamide gel (Novex). The gel was stained for 5 min with 0.1% w/v Coomassie blue in 50% w/v methanol and destained in 12% w/v methanol and 7% w/v acetic acid.
Isolated SOCS box sequences were used as affinity reagents to identify interacting proteins in cell lysates. […] (GST) fusion proteins containing the SOCS box sequences from SOCS-1 or SOCS-3 were coupled to Sepharose beads and used as affinity resins to bind proteins from M1 cell lysates. […]

T4 sequence (P08515 whole entry): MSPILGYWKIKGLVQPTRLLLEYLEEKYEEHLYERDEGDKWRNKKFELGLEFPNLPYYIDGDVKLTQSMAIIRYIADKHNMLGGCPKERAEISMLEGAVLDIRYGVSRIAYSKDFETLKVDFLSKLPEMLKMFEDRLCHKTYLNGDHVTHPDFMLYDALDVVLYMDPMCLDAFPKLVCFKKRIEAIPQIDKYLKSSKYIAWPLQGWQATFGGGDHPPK
Sequence of JAK1 (endogenous, M1 cells) (P52332 whole entry): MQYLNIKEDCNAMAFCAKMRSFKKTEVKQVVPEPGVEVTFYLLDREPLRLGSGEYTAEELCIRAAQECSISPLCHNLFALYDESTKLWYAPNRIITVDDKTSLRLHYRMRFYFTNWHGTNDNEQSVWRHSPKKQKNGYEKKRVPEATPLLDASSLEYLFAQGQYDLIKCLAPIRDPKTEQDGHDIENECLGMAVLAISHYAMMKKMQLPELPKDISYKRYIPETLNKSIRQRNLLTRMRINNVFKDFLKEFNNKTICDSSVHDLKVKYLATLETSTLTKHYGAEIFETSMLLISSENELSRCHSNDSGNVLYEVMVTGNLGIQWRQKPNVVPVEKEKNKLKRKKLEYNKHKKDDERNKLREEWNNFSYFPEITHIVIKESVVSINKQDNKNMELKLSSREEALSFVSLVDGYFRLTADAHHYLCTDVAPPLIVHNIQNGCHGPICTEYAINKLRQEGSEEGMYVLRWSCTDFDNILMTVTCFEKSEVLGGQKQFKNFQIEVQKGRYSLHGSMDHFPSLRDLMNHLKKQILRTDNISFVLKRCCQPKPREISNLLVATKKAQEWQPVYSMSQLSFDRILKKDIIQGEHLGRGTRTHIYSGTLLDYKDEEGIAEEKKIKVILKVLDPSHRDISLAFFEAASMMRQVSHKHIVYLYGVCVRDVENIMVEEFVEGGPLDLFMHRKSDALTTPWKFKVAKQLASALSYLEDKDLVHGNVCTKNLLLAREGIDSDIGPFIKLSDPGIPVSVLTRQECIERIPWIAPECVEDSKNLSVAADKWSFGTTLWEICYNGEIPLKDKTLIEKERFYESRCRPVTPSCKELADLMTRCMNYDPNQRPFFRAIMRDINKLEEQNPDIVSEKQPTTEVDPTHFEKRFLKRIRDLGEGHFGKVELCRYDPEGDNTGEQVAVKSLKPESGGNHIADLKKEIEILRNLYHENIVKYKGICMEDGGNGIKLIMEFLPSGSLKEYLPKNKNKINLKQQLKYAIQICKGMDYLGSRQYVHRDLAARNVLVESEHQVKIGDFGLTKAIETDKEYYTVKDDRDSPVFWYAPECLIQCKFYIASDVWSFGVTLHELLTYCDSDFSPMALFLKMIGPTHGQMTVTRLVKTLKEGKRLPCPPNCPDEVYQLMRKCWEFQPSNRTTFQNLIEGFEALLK
Sequence of cullin 2 (endogenous, M1 cells) (Q9D4H8 whole entry): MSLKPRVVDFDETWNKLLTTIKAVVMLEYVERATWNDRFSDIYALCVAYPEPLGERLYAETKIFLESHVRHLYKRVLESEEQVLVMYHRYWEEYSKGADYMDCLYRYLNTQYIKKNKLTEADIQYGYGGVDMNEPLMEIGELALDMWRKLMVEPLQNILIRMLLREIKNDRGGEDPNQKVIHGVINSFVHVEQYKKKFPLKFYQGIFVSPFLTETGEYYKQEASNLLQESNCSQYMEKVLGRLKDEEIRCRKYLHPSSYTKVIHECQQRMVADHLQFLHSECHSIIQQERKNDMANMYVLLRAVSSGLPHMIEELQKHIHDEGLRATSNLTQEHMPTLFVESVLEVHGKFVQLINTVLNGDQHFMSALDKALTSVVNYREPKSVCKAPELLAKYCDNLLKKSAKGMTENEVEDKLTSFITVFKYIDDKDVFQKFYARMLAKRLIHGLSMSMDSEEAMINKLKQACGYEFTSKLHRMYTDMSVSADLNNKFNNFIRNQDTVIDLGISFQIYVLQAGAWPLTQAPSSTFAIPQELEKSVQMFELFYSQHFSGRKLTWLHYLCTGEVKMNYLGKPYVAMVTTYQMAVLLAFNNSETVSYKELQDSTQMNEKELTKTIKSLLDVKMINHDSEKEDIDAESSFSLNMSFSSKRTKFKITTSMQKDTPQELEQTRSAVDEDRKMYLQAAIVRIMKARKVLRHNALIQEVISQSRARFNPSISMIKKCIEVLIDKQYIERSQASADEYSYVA

B1: elongin C containing a myc epitope (other, mouse)
chain: DQKLISEEDLMDGEEKTYGGCEGPDAMYVKLISSDGHEFIVKREHALTSGTIKAMLSGPGQFAENETNEVNFREIPSHVLSKVCMYFTYKVRYTNSSTEIPEFPIAPEIALELLMAANFLDC
notes: Transiently expressed in 293T cells; also called myc-elongin C
binding result [1]: no binding

B2: N-terminally FLAG-tagged full-length SOCS-1 (other, mouse)
chain: DYKDDDDKMVARNQVAADNAISPAAEPRRRSEPSSSSSSSSPAAPVRPRPCPAVPAPAPGDTHFRTFRSHSDYRRITRTSALLDACGFYWGPLSVHGAHERLRAEPVGTFLVRDSRQRNCFFALSVKMASGPTSIRVHFQAGRFHLDGSRETFDCLFELLEHYVAAPRRMLGAPLRQRRVRPLQELCRQRIVAAVGRENLARIPLNPVLRDYLSSFPFQI
notes: Stably expressed in M1 cells; also called FLAG-tagged SOCS-1; intact SOCS-1
binding result [2]: binds | binding result [3]: binds | binding result [4]: binds | binding result [5]: binds

B3: elongin B containing a FLAG epitope (other, mouse)
chain: DYKDDDDKMDVFLMIRRHKTTIFTDAKESSTVFELKRIVEGILKRPPEEQRLYKDDQLLDDGKTLGECGFTSQTARPQAPATVGLAFRADDTFEALRIEPFSSPPELPDVMKPQDSGGSANEQAVQ
notes: Transiently expressed in 293T cells; also called FLAG-elongin B
binding result [1]: no binding

B4: elongin B (endogenous, murine M1 cells) (other, UniProt P62869 1-118, looked up)
chain: MDVFLMIRRHKTTIFTDAKESSTVFELKRIVEGILKRPPEEQRLYKDDQLLDDGKTLGECGFTSQTARPQAPATVGLAFRADDTFEALRIEPFSSPPELPDVMKPQDSGGSANEQAVQ
notes: Endogenous protein from cell lysate; also called 18 kDa band
binding result [6]: no binding
